These results are taken from publication PMC10720262 (Cell Reports, 2023).

This assay deals with recombinant full-length PfCSP (Plasmodium falciparum circumsporozoite protein, strain NF54) (Plasmodium falciparum NF54, UniProt P19597).

Positions count from the first letter of the chain named.

Sequence of recombinant full-length PfCSP (Plasmodium falciparum circumsporozoite protein, strain NF54) (P19597 20-375): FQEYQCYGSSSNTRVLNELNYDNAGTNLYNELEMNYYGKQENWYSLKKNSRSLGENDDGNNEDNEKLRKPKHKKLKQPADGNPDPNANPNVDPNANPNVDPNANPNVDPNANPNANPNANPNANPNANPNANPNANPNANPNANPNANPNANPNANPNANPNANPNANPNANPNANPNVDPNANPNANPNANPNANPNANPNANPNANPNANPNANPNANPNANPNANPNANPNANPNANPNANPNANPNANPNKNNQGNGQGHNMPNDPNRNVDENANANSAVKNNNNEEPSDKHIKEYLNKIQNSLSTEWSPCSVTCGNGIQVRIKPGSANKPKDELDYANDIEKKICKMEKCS

B1: CL-444882 (antibody, V domains shown)
VH: QVHLVESGGGVVQPGRSLRLSCATSGFSFSSYGMHWVRQAPGKGLEWVAIIWYDGSNKFYADSVKGRFTISRDNSENTLYLQMNSLRAEDTAVYYCAKVGLSYSGRTGAFDIWGQGTMVTVSS
VL: DIQMTQSPSTLSASVGDRVTITCRASQSISIWLAWYQQKPGKAPKLLIYKAASLESGVPSRISGSGSGTEFTLTISSLQPDDFATYYCQQYNSYWTFGQGTKVEIK
In the case of B1, the binding result is given as “binds”.

B2: CL-445827 (antibody, V domains shown)
VH: QVQLVASGGGVVQPGRSLRLSCVASGFTFSFFGMHWVRQTPGRGLEWVAIIWYDGGHKFYADSVKGRFTISRDNSKDTLYLQMNSLRAEDTAVYYCARAEDNMARGNIDYSKYGMDVWGQGTTVTVSS
VL: B1 VL with A13V, V15I, I31T, A52S, S53N, I62F, E70D, S77G, N92F
Regarding B2, the binding result is “binds”.

B3: CL-447609 (antibody, V domains shown)
VH: QVQLVESGGGVVQPGRSLRLSCAASGFTFNNYGMHWVRQAPGKGLDWVAIIWFDGSNKYYADSVKGRFTISRDNSKNTLYLQMNSLRAEDTAVYYCARVGDHSKYRNRGDAFDIWGQGTMVTVSS
VL: B1 VL with I31S, A52S, I62F, F83S, Y87F, N92D
Regarding B3, the binding result is listed as “binds”.

B4: CL-460406 (antibody, V domains shown)
VH: QIQLVESGGGVVQPGRSLRLSCAASGFTFSNSGMHWIRQAPGKGLEWVTIIWYDGSNKYYADSVKGRFTISRDNSKNTLYLQMNSLRAEDTAIYYCARAYSSSSDDYYGMDVWGQGTTVTVSS
VL: B1 VL with I31S, A52S, I62F, E70D, Y91F, N92Y, S93N, K106T
For the molecule B4, the binding result is given as “binds”.

B5: CL-449849 (antibody, V domains shown)
VH: QVQLVESGGGAVQAGTSLRLSCAASGFTFSYNGMHWVRQGPGKGLEWVAIIWYDGGNKFYADSVKGRFTISRDNSKNMLYLQMNRLRAEDTAVYYCARAWNFADNKYSMDVWGQGTTVTVSS
VL: B1 VL with I31S, K45Q, A52S, I62F, N92Y, S93I, E104D
On to B5, for which the binding result was “binds”.

B6: CL-449869 (antibody, V domains shown)
VH: QVQLVESGGGAVQPGRSLRLSCAASGFTFSYNGMHWVRQAPGKGLEWVAIIWYDGSNKFYADSVKGRFTISRDNSKDTLYLEMNSLRAEDTAIYYCARAWNYDDKKYSMDVWGQGTTVTVSS
VL: B1 VL with I31S, A52S, I62F, S93Y, Y94F, K106R
Regarding B6, the binding result is listed as “binds”.

B7: CL-458015 (antibody, V domains shown)
VH: QVHLVESGGGVVQPGRSLRLSCAASGFTFSNYGMHWVRQAPGKGLDWVAIIWYDGSNKFYADSVQGRFTISRDNSKNTLYLQMNSLRAEDTAVYYCAKVQDLLGVPSTLGDHYTTDVWGQGTSVTVSS
VL: B1 VL with V19I, S30N, I31D, P40A, A52S, I62F, E70D, P80T, T85I, S93H
B7: the binding result is listed as “binds”.

B8: CL-459404 (antibody, V domains shown)
VH: QVQLVASGGGVVQPGRSLRLSCAASGFTFSNYGMHWVRQAPGKGLEWVAIIWYDGSKKYYSDSVKGRFTISRDNSKNTLNLQMNSLRAEDTAVYYCARAYGSGSYSDDYYGMDVWGQGTTVTVSS
VL: B1 VL with I31P, Y36F, A52S, S53N, I62F, N92Y, S93T
Take B8: the binding result is “binds”.

B9: CL-459075 (antibody, V domains shown)
VH: B8 VH with A49S, N80Y
VL: B1 VL with I31T, Y36C, A52S, S53N, I62F, N92Y
Turning to B9, the binding result was “binds”.

B10: CL-447563 (antibody, V domains shown)
VH: B8 VH with N80Y
VL: B1 VL with I31T, A52S, S53N, I62F, N92Y
B10: the binding result was “binds”.

B11: CL-449007 (antibody, V domains shown)
VH: QVQVVESGGGVVQPGRSLRLSCAASGFTFSNYGMHWVRQAPGKGLEWVAIIWYDGSHKFYANSVKGRFTISRDNSKNTLFLQMNSLRAEDTAVYYCARVGNGNSDWTDAFDIWGQGTMVTVSS
VL: B1 VL with S30N, I31S, A52S, I62F, S93T
On to B11, for which the binding result was “binds”.

B12: CL-460369 (antibody, V domains shown)
VH: QVQLVESGGGVVQPGRSLRLSCAASGFTFSNYGMHWVRQAPGKGLEWVGIIWYDGSNKYYIDSVKGRFTISRDNSRNTLYLQINSLRAEDTAVYYCARDGGWNDDYYYVMDVWGQGTTVTVSS
VL: DIVMTQSPDSLAVSLGEGATINCKSSQSVLYSSNNKNYLAWYQQKPGQPPKVLIYWASIRESGVPDRFSGSGSGTDFTLTISSLQAEDVAVYYCQQYYSMCSFGQGTKLEIK
On to B12, for which the binding result is “binds”.

B13: CL-460506 (antibody, V domains shown)
VH: QVQLVESGGGVVQPGRSLRLSCAASGFTFSNYGMHWVRQAPGKGLEWMAIIWYDGSNKYYADSVKGRFTISRDNSMNTLYLQMNSLRPEDTALYYCARAFYYGSGTLDYWGQGTLVTVSS
VL: EIVLTQSPATLSVSPGERATLSCRASQSVSSHLAWYQQKFGQAPRLLIYGASNRATGIPARFSGSGSGTEFTLTISILQSEDFAVYYCQQYNNWFTFGPGTKIDIK
As for B13, the binding result is on record as “binds”.

B14: CL-449724 (antibody, V domains shown)
VH: QVHLVASGGGVVQPGRSLRLSCEVTGFTFSSYGMHWVRQDPGRGLEWVAIIWYDGSNKFYADSVKGRFTISRDNSKNTLYLQMNSLRAEDTAVYYCARSYGILTGYQTKYGMDVWGQGTTVTVSS
VL: not shown
For B14, the binding result is “binds”.

B15: CL-445457 (antibody, V domains shown)
VH: QVQLVESGGAVVQPGTSLRLSCAASGFTFSNYGIHWVRQAPGKGLQWVALIWYNGNNKFYADSVQGRFTISRDNSKNILYLQINSLSAEDTAVYYCARAFYSDSGNYMDYWGQGALVTVSS
VL: DIQMTQSPSSVSASVGDRVTITCRARQDISSRLAWYQQKPGKAPKILIYGASSLQSGVPSRFSASGSGTDFTLTISSLQPEDVASYFCQQANSFPWTFGQGTKVEIK
B15: the binding result was “binds”.

B16: CL-445635 (antibody, V domains shown)
VH: B15 VH with I34M, D62E, Q65E, T69I, Y80F, I83M, S102Y, M108L, Q113P, A115S
VL: B15 VL with V83F, S85T, F87Y
With B16, the binding result is “binds”.

B17: CL-445901 (antibody, V domains shown)
VH: QVQLVESGGGVVQPGRSLRLSCAASGFTFSNYGIHWVRQAPGKGLEWVALIWFNGNNKFYADSVEGRFTVSRDNSKNTLYLQLNSLRAEDTAVYYCARAYYFASGNYMDYWGQGTLVTVSS
VL: DIQMTQSPSSVSASMGDRVTITCRASQDISSSLAWYQQKPGKAPILLISFASSLHSGVPSRFSGSGSGTDFTLTISSLQPEDFATYSCQQANSFPWTFGQGTRVEVK
In the case of B17, the binding result is recorded as “binds”.

B18: CL-444906 (antibody, V domains shown)
VH: B6 VH with A11V, A23T, Y31T, N32Y, E82Q, N101D, Y102K, D103V, K105D, S108G
VL: not shown
With B18, the binding result is listed as “binds”.

B19: CL-447376 (antibody, V domains shown)
VH: QVQLVESGGGVVQPGRSLRLSCAASGFNFNNYGMHWVRQAPVMGLEWVAIIWYDGSNKFYADSVKGRFTISRDNSQNTLFLQMNSLRAEDTGIYYCARSGGEMGNFDYWGQGTLVTVSS
VL: DIVMTQSPLSLPVTLGQPASISCRSSQSLVYSNGDTYLDWFQLRPGQSPRRLIYKVSHRDSGVPDRFSGSGSGTEFTLRISRVEAEDVGIYYCMQGTHYWTFGQGTEVEIK
B19: the binding result is “binds”.

B20: CL-450034 (antibody, V domains shown)
VH: B5 VH with F102Y, N105S
VL: not shown
In the case of B20, the binding result is given as “binds”.

B21: CL-447737 (antibody, V domains shown)
VH: QVQLVESGGGVVQPGRSLRLSCAASGFTFSSYGMHWVRQAPGKGLEWVAIIWFDGSNIFYEDSVKGRFTISRDNSKNTLYLQMNSLRAEDTAVYYCAKVWNYDSDYYSMDVWGQGTTVTVSS
VL: not shown
Turning to B21, the binding result is recorded as “binds”.

B22: CL-449759 (antibody, V domains shown)
VH: QVHLVESGGGVVQPGESQRLSCAASGFTFSNYGMHWVRQAPGKGLEWVALIWYDGSNKFYADSVKGRFTISRDNSKNTLYLHMNSLRAEDTAMYYCAKVPNWNDDKYTMDVWGQGTTVTVTS
VL: not shown
Regarding B22, the binding result is “binds”.

B23: CL-447703 (antibody, V domains shown)
VH: QVQLVESGGGVVQPGRSLRLSCEASGFTFSDHGMHWVRQGPGKGLEWVSIIWYDGSNKYYADSVKGRFTISRDNSKNTLYLEMNRLRAEDTALYYCARVWNHDDYKYSMDVWGQGTTVTVSS
VL: not shown
For B23, the binding result is reported as “binds”.

B24: CL-453181 (antibody, V domains shown)
VH: QVQLVESGGGVVQPGRSLRLSCAASGFTFSYYGMHWVRQAPGKGLEWVSIIWYDGSNKFYADSVKGRFTISRDNSKDTLYLEMNSLRAEDTAVYYCARVEFYNGSGRDFYYGLDVWGQGTTVTVSS
VL: EIVMTQSPATLSVSPGEGATLSCRASQSVSSNLAWYQQKPGQAPRLLISGASTRATGVPARFSGSGSGTEFALTISSLQSEDFAVYYCQQYSKLWTFGQGTKVEIK
Consider B24, for which the binding result was “binds”.
